# B1: S. gordonii SecA2 with a C-terminal His6 tag (enzyme)
# chain: MVKNFFHIRRLKKILAKIKSFEKEMSSLSDLDLQKKTDEFKKRLADGENLDQLLPEAYAVVREVDKRILGLFPYDVQVMGAIVLHEGNIAEMATGEGKTLTATMPLYLNALSGQGAMLVTPNSYLALRDAKEMGPVYRFLGLTIETAVRADESKPLETKEKRRIYQADIIYTTNSALGFDYLIENLAENKKNQFLREFNYVIIDEIDSILLDSAQTPLIISGAPRVQSNFYDMMNTLVQTLYEDEDYCYDDEKNEVWLTQKGIRAAESFLGLNHLFSKENQELVRHLNLALRAHMVYKKDQDYVVRQSENEAEVVLLDRATGRLMELTRLQGGQHQAIEAKEHVKLTQETRAMASITYQNLFKLFRKLSGMTGTGKVVESEFLETYSMSVVKIPTNCPVIRRDYPDQIYQTLPEKVFASLDEVKHYHAKGNPLLIFTGSVEMSEIYSSLLLREGIAHNLLNANNVAREAQMIAESGQLGAVTVATSMAGRGTDIKLGPGVADLGGLVVIGTERMENHRIDLQIRGRSGRQGDPGISKFFISLEDDLLKKWGPDWIKNFYRDYSPEDFKNNPILLKQRRFKKLVSKAQKASEGNAKLSRRLTLEYAQSMKIQRELTYAERNRLLEDTNEMEEEINRVIEYVIKQVAYEQSFENRADFYRFILHHFSNRAERIPQEFDIHSPKEVSHLLQAIAEQELLAKKSYLKSDKLYSQFQRLAILKAIDENWVEQVDYLQQLKSALSGFHTSNKKPIVEYYQEAYDGFEYMKERMKHQIVKNLLMSELALNPKGEVVMYFP
# Biological target: T1, S. gordonii SecY2-Asp4-Asp5 complex (S. gordonii) (UniProt A8AWV0)
# T1 sequence 1: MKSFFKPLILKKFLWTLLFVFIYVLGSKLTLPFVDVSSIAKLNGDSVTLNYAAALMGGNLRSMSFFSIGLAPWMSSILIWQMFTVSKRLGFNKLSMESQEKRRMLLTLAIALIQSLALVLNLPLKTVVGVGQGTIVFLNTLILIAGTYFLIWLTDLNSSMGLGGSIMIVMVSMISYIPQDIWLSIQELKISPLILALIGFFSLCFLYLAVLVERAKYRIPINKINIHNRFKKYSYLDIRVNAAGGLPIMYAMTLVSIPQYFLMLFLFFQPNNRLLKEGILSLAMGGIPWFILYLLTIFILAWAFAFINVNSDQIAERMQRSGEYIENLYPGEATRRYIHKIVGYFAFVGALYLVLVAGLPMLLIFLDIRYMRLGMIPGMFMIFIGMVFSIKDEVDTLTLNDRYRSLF
# T1 sequence 2: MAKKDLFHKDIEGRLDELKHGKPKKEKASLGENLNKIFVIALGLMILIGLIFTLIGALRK
# T1 sequence 3: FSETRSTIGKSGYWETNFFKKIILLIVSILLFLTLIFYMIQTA
molecule,measurement,value
E. coli SecA (from UniProt P10408 1-901) (enzyme),"steady-state ATPase activity of 0.3 uM E. coli SecA on addition of 0.46 uM SecY2-Asp4-Asp5 in proteoliposomes, 25 C (SecA alone ~0.02 s^-1)",0.072 s⁻¹
B1,"steady-state ATPase activity of 0.3 uM S. gordonii SecA2 on addition of 0.46 uM SecY2-Asp4-Asp5 in proteoliposomes, 25 C (SecA2 alone ~0.01 s^-1; 4-fold increase)",0.044 s⁻¹
